{
  "source": "paper PMC9359501",
  "about": "(Med (New York, N.Y.), 2022)",
  "target": "SARS-CoV-2 Spike S1 (Omicron), His-tagged (SARS-CoV-2 Omicron B.1.1.529 BA.1, strain)",
  "assay": "SPR",
  "data": [
    {"binder": "LY-CoV1404 (bebtelovimab) reference clone neutralizing antibody (antibody, V domains shown) VH: QITLKESGPTLVKPTQTLTLTCTFSGFSLSISGVGVGWLRQPPGKALEWLALIYWDDDKRYSPSLKSRLTISKDTSKNQVVLKMTNIDPVDTATYYCAHHSISTIFDHWGQGTLVTVSS VL: QSALTQPASVSGSPGQSITISCTATSSDVGDYNYVSWYQQHPGKAPKLMIFEVSDRPSGISNRFSGSKSGNTASLTISGLQAEDEADYYCSSYTTSSAVFGGGTKLTVL", "values": [
      {"measurement": "Kd", "result": 85.5, "unit": "nM"},
      {"measurement": "koff", "result": 0.00677, "unit": "s⁻¹"},
      {"measurement": "kon", "result": 79200, "unit": "M⁻¹ s⁻¹"}
    ]},
    {"binder": "S309 (sotrovimab) reference clone neutralizing antibody (antibody, V domains shown) VH: not shown VL: EIVLTQSPGTLSLSPGERATLSCRASQTVSSTSLAWYQQKPGQAPRLLIYGASSRATGIPDRFSGSGSGTDFTLTISRLEPEDFAVYYCQQHDTSLTFGGGTKVEIK", "values": [
      {"measurement": "Kd", "result": 24.5, "unit": "nM"},
      {"measurement": "koff", "result": 0.000395, "unit": "s⁻¹"},
      {"measurement": "kon", "result": 16200, "unit": "M⁻¹ s⁻¹"}
    ]}
  ]
}
